Data on 1 protein can be found in article PMC10676354.

Data set [1] is described as follows: fluorometric AGE assay, HEK293 mitochondria, vehicle (PBS). The settings on record: glycan lost; control: DJ1 WT.
Data set [2] in a line: fluorometric AGE assay, HEK293 mitochondria, MGO 30 min. Conditions: glycan lost; control: DJ1 WT.

B1: DJ1: T19A (protein)
parent chain: MASKRALVILAKGAEEMETVIPVDVMRRAGIKVTVAGLAGKDPVQCSRDVVICPDASLEDAKKEGPYDVVVLPGGNLGAQNLSESAAVKEILKEQENRKGLIAAICAGPTALLAHEIGFGSKVTTHPLAKDKMMNGGHYTYSENRVEKDGLILTSRGPGTSFEFALAIVEALNGKEVAAQVKAPLVLKD
Regarding B1, the “other: mitochondrial protein glycation” value in data set [1] is given as “no change”; in data set [2] it was “increases”.
